In patent publication US6111081A, “Lactoferrin variants and uses thereof” (Baylor College of Medicine, priority 1997, dated 2000):

Assay: pH-dependent release of 59Fe (dialysis, liquid scintillation counting)
Type: physicochemical
Conditions: 59Fe-saturated protein dialyzed against buffers pH 7-2, 48 hours, 4° C.; FIG. 4
Method: FIG. 4 depicts pH-dependent release of ^59 Fe from the lactoferrin amino-terminal (MN-2Y) and carboxy-terminal (MC-2Y) iron binding defective variants. ^59 Fe-saturated recombinant human lactoferrin (Rec hLF), MN-2Y and MC-2Y were dialyzed against buffers ranging in pH from 7-2. ^59 Fe remaining bound to the lactoferrin samples after dialysis was quantified by liquid scintillation counting and the Fe/protein molar ratio was determined. The data are represented as means ±S.E.M.
MN-2Y, MC-2Y and MNC-4Y (5 mg) were incubated with a four-fold excess of FeCl3 :^59 FeCl3 :NTA (400:1:8). Ward et al., 1995, Biotechnology 13:498-503. The samples were incubated at room temperature for 30 minutes. The samples were purified through NAP-10 column (Pharmacia, Piscataway, N.J.) followed by dialysis against 0.05 M Tris/HCl, 0.2 M NaCl, pH 7.0 for 12 hours to remove any non-specific iron bound to the lactoferrin variants. Iron bound to the lactoferrin variants after dialysis was quantified by liquid scintillation counting. The pH stability of iron binding for each of the lactoferrin variants was carried out as described previously. […]
The lactoferrin variants were saturated with ^59 FeCl3 and dialyzed against buffers ranging in pH from 7-2 for 48 hours at 4° C. The amount of iron remaining bound to the lactoferrin variants was quantified by liquid scintillation counting. […]

B1: recombinant lactoferrin: purified wild-type recombinant human lactoferrin expressed in Aspergillus awamori (protein, UniProt P02788 20-710, looked up)
Lactotransferrin: GRRRSVQWCAVSQPEATKCFQWQRNMRKVRGPPVSCIKRDSPIQCIQAIAENRADAVTLDGGFIYEAGLAPYKLRPVAAEVYGTERQPRTHYYAVAVVKKGGSFQLNELQGLKSCHTGLRRTAGWNVPIGTLRPFLNWTGPPEPIEAAVARFFSASCVPGADKGQFPNLCRLCAGTGENKCAFSSQEPYFSYSGAFKCLRDGAGDVAFIRESTVFEDLSDEAERDEYELLCPDNTRKPVDKFKDCHLARVPSHAVVARSVNGKEDAIWNLLRQAQEKFGKDKSPKFQLFGSPSGQKDLLFKDSAIGFSRVPPRIDSGLYLGSGYFTAIQNLRKSEEEVAARRARVVWCAVGEQELRKCNQWSGLSEGSVTCSSASTTEDCIALVLKGEADAMSLDGGYVYTAGKCGLVPVLAENYKSQQSSDPDPNCVDRPVEGYLAVAVVRRSDTSLTWNSVKGKKSCHTAVDRTAGWNIPMGLLFNQTGSCKFDEYFSQSCAPGSDPRSNLCALCIGDEQGENKCVPNSNERYYGYTGAFRCLAENAGDVAFVKDVTVLQNTDGNNNEAWAKDLKLADFALLCLDGKRKPVTEARSCHLAMAPNHAVVSRMDKVERLKQVLLHQQAKFGRNGSDCPDKFCLFQSETKNLLFNDNTECLARLHGKTTYEKYLGPQYVAGITNLKKCSTSPLLEACEFLRK
pH at which iron release begins: 5.0
pH at which iron release is completed: 2.0
